# Assay results taken from the domain aggregation screens of Martell et al. (2025).
# Assay: soluble fraction after stress (log2 fold change); higher = more stays soluble; pooled small domains, quantitative proteomics
# Conditions: stress: pH 4
# In short: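 Values are log2 fold changes, and higher ones mean more of the domain stayed soluble. Each fold change reflects the soluble amount of a domain after acid stress and is taken as a measure of aggregation propensity. The stress was pH 4, applied to pooled custom libraries of small protein domains analysed by high-throughput quantitative proteomics.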
row,Sequence,soluble fraction (log2)
1,HMIVAHEINRHLGESDQPVEIPDNRREGAVAELLKTFNNDDAFREMDDGKYEVALDGEKVREAARSLLA,-0.0196
2,HMNLTSSDIQKILSYALLADNSITLNSIEESMASLKLKKMSAEQLIELLEVSSMVLRNTNNSWSIL,-1.32
3,HMYYQEDHDIILEETEDVTDPYLITLRGYIFLNNLQWVAARQAFLSADERFRHRHYSALIAPIMQTIDNAA,-1.49
4,HMNETLKQIRINALQYSEKDMATKLGLPLSEYKEIENDKPLNFTLLIRLSQAVGKTIDDLLNAQ,-0.128
5,HMPTGRVVIPLNRLTASDVARILDEAYGRDHNFEVVKPSRLAKGIIVIGPKSEIDGIKELLAH,-0.173
6,HMQVLSESDVEDIKAISGGDKAYDNLMEWAGSKLSKQDAKDYDDVLATGNKTAITFAVKALMAQYENAN,-1.05
7,HMSISDEDFAKLLDFVKEKWDAGELDNAEDIKAAISEGEKEFGVSLDESTRTTLASALQQLN,-0.496
8,HMWQKGEPAITGLKRISKPGLRIYSKNDELPIVYGNRGIAVISTNKGVMTGIEAKRSGVGGEVLFYV,0.104
9,HMNREENIQIGRDLLERELRKQGMDLQENLRQEVLLDGAKKLGFNNTDDLLAAIGDLKVTPAMFIGKIA,-0.168
10,HMFSLDMDRLVRPGFMASGNVTFSDGVTGKWALDQMGRLALETAQKGYQPSPADVQAFQRELQQQLQRQG,-0.178
11,HMFMKNTEVALAIKGKFSNQTTITSKELVLFLSDLFPELSNKTIPWKINQLKAENLIYQTGRGIYTFN,-0.809
12,HMSTTYAPYLLGETEQEAIRMARNAGLDPQVVRQSDKSEAGTVILQSHDFGFAMKRGAVILITVSSGPLQ,-0.0322
13,HMVDLEINGRQTLQFVANKYGIPVEKLATDLNIPSDRFGEKLGRLRRQYAFTMNDVRKSILKNK,0.215
14,HMQQEPNFYIVDGNTNQIVDRYYAPDSNVAHQYLGQWRQQHDPQETGNYRYGRLSSETEERYRNLAA,0.188
15,HMPSKTFYNLSQEKQQKIIDASEKEFSNNLYQDVSLNQIIKNSNISRGSFYMYFTDKEDLYFYLLNEY,≥ 0.43
16,HMEELPVLHLKHVVVEGESLWKLAEQYLNDGTRWQEIYMLNRENISNPDLIREGQELNIQFLQGE,-1.05
17,HMRTEGNLGAKVRVLRRSQGMTQAELARRLGISPSYLNLIEHNRRSFTADLLVKLAKILPVNLKT,0.04
18,HMNNIIYLIANKLDVGKRLDQFITIRTEFSRQRVINLIEDGYVKLNNKIINLKKYKIKGDEKIEITIPEIR,-1.49
19,HMSSIFTRIIAGEIPSYKVAEDENYYAFLDINPLTKGHTLVVPKMEVDYIFDLDDKTLAGMMLFAKKG,-0.455
20,HMAYSEEERNLIRSRLKDVAAALFKEKGIRDTNIDEIYTPVGISKTFFYSFFPSKAVLAIAIMK,-0.267
21,HMPKTLTEAAYEDIKQWILEGEITPGSKISLEDTASRLEVSMTPIREALTKLQQEGLVEYIPRAGWRASK,-0.294
22,HMLQKVELSDNEKFIFDSLQKEQKMALLRLKELVNLSNKAWDVSVKNLTKQGLVKVTKIDEELLIEI,-1.24
23,HMISFLNFVRKEIDASQLKDSTKQNHLTTIGLLQSFKPSIEFKDLNYNFITSFEKYLYDAGYQM,0.105
24,HMGDTLEIVVIYSNKQKAEEAVNNLKGKFEDLGYNFAIITVDTSKITQLAMESSIQYIEFPKSFYFSD,-1.29
25,HMDAHYMEMKGKTGTAFTMLRPAGKIDIEGQIFDAVAEAGFIEKGEAIRVVKYENAQLIVRK,-0.32
26,HMGPELGENEKLIFDIIKKESKMELGILKAQVDLSNKKWDKALKGLATHGLTKVNKTDDGLFIELI,-0.942

row,Sequence,soluble fraction (log2)
1,HMSVDAMDEANERKMAKTFNMIVLGGLLKIRPIVSIESVIKALRKTLPERHHHLIPMNEEAIHIGMDII,-0.288
2,HMNTNDFTIGTRVRTTKKGNGSSDGTSNTARSGIEGTITRIIPEAKYPYLVSTTVPMGWYKKDALEK,0.157
3,HMKQENRLKILRKEKGLTQTKLANEIGVSKRTIIAWENDERQIKPDKAQQLADYFGVKEGYLLGYTNN,-0.0458
4,HMDVNAQAGYDKLQSNQLDGARHDYEQALKTDPNNVDTLLALAAIAQRQGRSADADGYRQRAIDAD,-0.245
5,HMVPLGDLSKNERRAMELAATNGNVTTRALADDAQVTKRTASTTLRRLAKRGLLEWIGKGPSDPGQFYRIP,-0.119
6,HMSVYIGVDQAKSIAAEHAGLSNSAVTFSKAKLENDDGMTVYEVEFFYQGTEYDYKIDASTGSILEYDLDR,-0.0157
7,HMSKETTYEVLSLKGDEWQTDTIYSDRDEAIEAARNLHGDPHIDGAKVISEVYDDKTGGSKETTIFNT,-0.21
8,HMFMPGTIIKQFRELRNYSQDYVSRKMGISQNAYSKIENNITQLTVTHVKQLSSILDVPIVELLR,-0.366
9,HMEPTLVVARDKDAKSPLVAKLMKELGVDAAPRVIVDDSVIGGAKLSHNHTEIDATYKTALINLYQAIT,-0.0179
10,HMRRTEKEIEQDVMRAIATIISEKGISSVTIKEVSNLSKTDVIVLERRFKNDEGLIKAYTSQ,0.0814
11,HMQTNEAIINQAVQAAEAQNITTRSQAVDALKANGMTEAQARQLAVQRGISYDQLINELFPME,0.108
12,HMVAAITDLPVKSVNGRQMYYYVVRKGETVYSLTHTLGITHDRLVKANRSVEDGLRAGQILYFPVSEFG,-0.00401
13,HMYNIDSFMTKNYPTMERFTLSDVQKKYKTTFGLFVKQDELASMIEKTGRFNITSSKNVKYVNR,0.313
14,HMSVSEAELAEKYHADDLEALKSGKLHEFQENLIDRNGKKYTVQTMKDILTLSDGTRLLLGIGLD,-0.0916
15,HMPAWKINQELQATVIATKANQTRLRIEGQTFETQTAIALKPGQSLLIKVVSLEPQISFALI,0.199
16,HMNNDFIVKSTDSHKVNLRSQPDTHADIIKRLDDHTIVEKLKTVRKNWYLVQLKDTTTQGYVHKSQLERV,0.21
17,HMVNYKEILRLAHEGYSQRQIATNIGNSRNTVSEVLDAAKAANIAWPPEETVTNEQLGAILFPNRH,≥ 0.43
18,HMKKTDFNVENYDIEELAAILNFKYVPLNQGLIRDRIKDMKQRFKNKPEYIKFFTDVEIKLVNNLNLFN,-1.01
19,HMKSATGKIPDFISDLPVDEFVRELIVTNAFQPLNKFKEVQNHIGSALKIYVDELTEKRANGTVHILYSHK,-0.324
20,HMWVETITTKAGITKYKFQERYTDTYSGKTKRVSVTYTSNSRQAYKLAQAELQKKIDLATNTD,0.112
21,HMRRELDSEHKRQEILFAAKRLLLAEGYDATSMSRLAKEAGVAPNTLYWYFKDKDELLIAILDELVAE,-1.09
22,HMESPVNTLPEDQRAWYKALPPELSTKTAVEAGAGVGVSERTVKRLLSNQTFFINLQRGNYRKRH,0.314
23,HMDERLLRLYERELQFLREGADEFAQAYPKVAGHLGLNSQSMGDPFIERLLEGLGFLTARIQLQLESEF,-0.823
24,HMDGEINPYTGREYVTNSVRMHPRRIGYVQVYSRKDHKWTDMTEWAFLGEQERKKVLLGKAYEPPVYL,0.0599
25,HMSRVFSPSELEIRHAQDVFQALEEAKRQGKGAVSLNGKMIDAPIVARAKLVLEAAAAIYGED,-0.202
26,HMYAHLGKNLEVVINKALAQEDPEKKAGFAHHIAYYMKLAYSNWHKELVHDDAIRSELDTITGGELEFSN,-0.0696

row,Sequence,soluble fraction (log2)
1,HMPEKNQITHLIRLIDDRDEFVRKRVREQLIKLGEDAIPFLEMAAKTENLEIQRIASEIIQAIIPRQ,-0.282
2,HMRIPANIAEDIKKLQKKEHHLHHHLGRDPFDDELAKELEWDTEQVSEIRQMIKNPELLEELLEAEREEE,-1.2
3,HMDYQYILVDVKDRIATVTINRPEYSNAFARESYYEIADAMNTLGARDDVGVIVITGAGKHFSAGGDIKRF,-0.652
4,HMAHLNYQTVDINALIRHSLQLVSQDAQSRGIALQFTPRPELTTISADPDRLNQVLLNLYLNAMQD,-0.205
5,HMVAISNTSGLAGVAYWIQSNIPKGIDIRKDNPGIVTIKNWIDEEYRKGRTTTISEEEMFKLVREYMPEL,-1.12
6,HMREKLKEYVHLLFAGTVGKEDMEQEILQNTLDRFDDWVARGFSEEDAYRKAVSGIGDIDALLG,-2.07
7,HMIIMVNLYQIWDKEVQGLDSVGAKPEQIEARRQAIAAHFESKARQAGMSSKDIYATLDNFDTYSRQKTS,-1.3
8,HMKPDWLSDGRLIPDEVMSHLRKIAVHAVEEMGYSPEDVIKILGLSRNTIYDWLKRFREHGYEGLDTKK,-0.738
9,HMKKVSVKPILELRAAGISMRKIETLMHVSRHTISAIYKAADAYSISWDNVKDFDEDKIYEMLFPPTP,≥ 0.43
10,HMQITSTDEIEKMIDELIAANPEQTKQYQNGNHKVAGWFVGQMMKASKGKANPQMVNNLLQKKL,0.166
11,HMVPHTTSMVAEVQERLFNLNYDPGPINGRMDQATITAITRFQRNFSLPQTGQIDEGFLNTLRDARL,0.063
12,HMEKKSKLVLAVLQGSDSDNTIRNLNERGFMVTVLSSTGGFLKKKSTTVMIGVEEDRLEEALDVLQKYAG,-0.617
13,HMESAESRVDLIGMIGEAITDLRPAGTAQFGEERIDVVSESEWITEGSTVKVVSAEGYRHVVRVME,-1.01
14,HMELSAEGWVDGTGVRMRASASTDSEVVRVTEDGESLDITGVSGTWYRVTAGGVSGYIRSDYVSLEEP,-0.186
15,HMPDFLAELAARMERDAVTEAQIRQVVAQKGHYPEEVSPAQYHPDFFRQWLFPHWEKIVDVIRSSPEYTP,-0.539
16,HMRPSGTAGILRYLSSGAIRGIGATTAQRLVSEFGEKTLDVMENEPERVAMLKGISKSKAEDFSLQLKQS,0.0932
17,HMTNVVSKNKAKEIAMNIINDTVLQGQTAATFKEIVKANGVYVVKIEIQGQEYTSYITKDGKIVFPYGVEV,-0.661
18,HMADGTSIYAEREVLYVTSPTANTAKVYNVSGALVRTMTLSAGQTVRTALPAGFYVVALGNGNTHKVIV,0.0275
19,HMNPNEVQIPDLVNKTEDEAEQILKDLKLKLVVKSEEYNENIEKGKIISQDPPYQENYTIKEHSEISIVIS,-0.415
20,HMAPQQARAAKTRVKLLDAAATVVRRDGIQAMTLARVAEEAGVSKGGLLHHFGSKEELVTGMLEQ,-0.402
21,HMGRLEVDLVVPYDKYEAMNVIRAEGRILKEDHQGDGAHLKIQINETALWKLKRMLGEGYGQ,-0.255
22,HMLTIQNYFNQVKNIDWEQVPAALSKGHQLVEGASQNNWSAYHSNANIQRVVEAYFQKLNDYLEKN,-0.168
23,HMYIDLHEIWKSLTDEEQTVVKLLETEPAHVDTLIENSQIPASRILATLTLLEVRGIVKRLPGRMFSLAD,-0.571
24,HMDTLRARQEAAYRFLSAIAGDWRNYEEANRALFAGDAARFQDLTESWPADVRDHARHLASAAFSS,-1.15
